Experiments:
κI O18/O8 Y87H (human) [1] = experiment: AUC
κI O18/O8 Y87H (human) [2] = experiment: NMR titration

- Kd (κI O18/O8 Y87H (human) [1]): 420 µM
- Kd (κI O18/O8 Y87H (human) [2]): 347 µM
Substance: κI O18/O8 Y87H (domain or fragment)
